Laboratory results from PMC5896956, “Small molecule induced oligomerization, clustering and clathrin-independent endocytosis of the dopamine transporter” (eLife, 2018).

B1: DAT fused to yellow fluorescent protein (YFP) (YFP-DAT) (natural protein, human, UniProt Q01959 1-620, looked up)
chain: MSKSKCSVGLMSSVVAPAKEPNAVGPKEVELILVKEQNGVQLTSSTLTNPRQSPVEAQDRETWGKKIDFLLSVIGFAVDLANVWRFPYLCYKNGGGAFLVPYLLFMVIAGMPLFYMELALGQFNREGAAGVWKICPILKGVGFTVILISLYVGFFYNVIIAWALHYLFSSFTTELPWIHCNNSWNSPNCSDAHPGDSSGDSSGLNDTFGTTPAAEYFERGVLHLHQSHGIDDLGPPRWQLTACLVLVIVLLYFSLWKGVKTSGKVVWITATMPYVVLTALLLRGVTLPGAIDGIRAYLSVDFYRLCEASVWIDAATQVCFSLGVGFGVLIAFSSYNKFTNNCYRDAIVTTSINSLTSFSSGFVVFSFLGYMAQKHSVPIGDVAKDGPGLIFIIYPEAIATLPLSSAWAVVFFIMLLTLGIDSAMGGMESVITGLIDEFQLLHRHRELFTLFIVLATFLLSLFCVTNGGIYVFTLLDHFAAGTSILFGVLIEAIGVAWFYGVGQFSDDIQQMTGQRPSLYWRLCWKLVSPCFLLFVVVVSIVTFRPPHYGAYIFPDWANALGWVIATSSMAMVPIYAAYKFCSLPGSFREKLAYAIAPEKDRELVDRGEVRQFTLRHWLKV
notes: Dopamine transporter (DAT), human; In the FRET experiment one copy carried CFP (CFP-DAT) and the other YFP (YFP-DAT); also called CFP-DAT (the copy with CFP in place of YFP, donor in the FRET experiment); source: PAE cells, stably expressed, in lysate; for FRET in living PAE cells stably co-expressing CFP-DAT and YFP-DAT
B2: HA-DAT (endogenous, HA-DAT knock-in mouse) (natural protein, UniProt Q61327 1-619, looked up)
chain: MSKSKCSVGPMSSVVAPAKEPNAVGPREVELILVKEQNGVQLTNSTLINPPQTPVEVQERETWSKKIDFLLSVIGFAVDLANVWRFPYLCYKNGGGAFLVPYLLFMVIAGMPLFYMELALGQFNREGAAGVWKICPVLKGVGFTVILISFYVGFFYNVIIAWALHYFFSSFTMDLPWIHCNNTWNSPNCSDAHSSNSSDGLGLNDTFGTTPAAEYFERGVLHLHQSRGIDDLGPPRWQLTACLVLVIVLLYFSLWKGVKTSGKVVWITATMPYVVLTALLLRGVTLPGAMDGIRAYLSVDFYRLCEASVWIDAATQVCFSLGVGFGVLIAFSSYNKFTNNCYRDAIITTSINSLTSFSSGFVVFSFLGYMAQKHNVPIRDVATDGPGLIFIIYPEAIATLPLSSAWAAVFFLMLLTLGIDSAMGGMESVITGLVDEFQLLHRHRELFTLGIVLATFLLSLFCVTNGGIYVFTLLDHFAAGTSILFGVLIEAIGVAWFYGVQQFSDDIKQMTGQRPNLYWRLCWKLVSPCFLLYVVVVSIVTFRPPHYGAYIFPDWANALGWIIATSSMAMVPIYATYKFCSLPGSFREKLAYAITPEKDRQLVDRGEVRQFTLRHWLLV
notes: it is reached by the HA11 antibody from outside the cell; Detected with the rat DAT antibody; oligomer species at 190 kDa; also called mouse DAT; source: endogenous (knock-in), striatal synaptosomes of adult HA-DAT mice

Columns and labels:
[1] = target: the molecule itself; test: SDS-resistant oligomers on SDS-PAGE and western blot; PAE cells stably expressing the tagged transporter, vehicle (DMSO) or 20 µM AIM-100 for 2 hr at 37°C (also after cocaine, dopamine, amphetamine, modafinil, KRCA-0008, CHC siRNA, at 4°C or 20°C); lysis in TGH buffer, Laemmli buffer (2% SDS, 5% β-mercaptoethanol) 5 min at 95°C, 7.5% SDS-PAGE, blot with GFP antibody; oligomers (O) against monomers (M)
[2] = target: the molecule itself; test: SDS-resistant oligomers on SDS-PAGE and western blot; striatal synaptosomes of adult HA-DAT mice in KRH/G, vehicle (DMSO) or 10–20 µM AIM-100 for 2 hr at 37°C; pelleted synaptosomes denatured in Laemmli buffer, SDS-PAGE, blot with DAT antibody

| Protein | stoichiometry N [1] | stoichiometry N [2] |
| --- | --- | --- |
| B1 | ~3 | – |
| B2 | – | ~3 |
